Test results: US20110112279A1 (Genentech, published 2011)

Assays:
[1] = biological target: T1, human STOP-1, full length, C-terminal 8xHis tag (h762HIP; M1-K243-His), expressed in CHO-psgb cells (human, UniProt Q96CG8 31-243); test: solution competition phage ELISA (762 S/F): short form coated, phage pre-incubated with full length STOP-1 in solution; IC50 is the STOP-1 concentration
T1 construct: The secreted protein purified from medium lacks the signal peptide; Light scattering: about 58% hexamer and 42% trimer; also called UNQ762; full length form
Experimental: (§1) The wells were blocked by adding 65 ul 1% BSA for 30 minutes followed by 40 ul 1% Tween20 for another 30 minutes. Next, the wells were washed with PBS—0.05% Tween20 5 times. Various dilutions of F(ab) or F(ab)′₂ phage down to 0.1 O.D./ml in ELISA buffer (PBS—0.1% BSA and 0.05% Tween20) were added to the wells for 15 minutes at room temperature. The wells were then washed with PBS—0.05% Tween20 at least three times. 75 ul of HRP-conjugated anti-M13 antibody (Amersham, 1/5000 dilution with ELISA buffer) per well was added and incubated at room temperature for 30 minutes. The wells were washed again with PBS—0.05% Tween20 at least five times. Next, 100 ul/well of a 1:1 ratio of 3,3′,5,5′-tetramethylbenzidine (TMB) Peroxidase substrate and Peroxidase Solution B (H₂O₂) ((Kirkegaard-Perry Laboratories (Gaithersburg, Md.)) was added to the well and incubated for 5 minutes at room temperature. The reaction was stopped by adding 100 ul 1M Phosphoric Acid (H3PO₄) ((Kirkegaard-Perry Laboratories (Gaithersburg, Md.)) to each well. The optical density of the color in each well was determined using a standard ELISA plate reader at 450 nm. The dilutions of phage were plotted against the O.D. readings.
Third, a competition ELISA was performed. 96-well Nunc Maxisorp plates were coated with full length or short form human STOP-1 (2 ug/ml in PBS) at 4° C. overnight or at room temperature for 2 hours. The wells were blocked by adding 65 ul 1% BSA for 30 minutes followed by 40 ul 1% Tween20 for another 30 minutes. The wells were washed with PBS—0.05% Tween20 5 times. […] The unbound phage was assayed by transferring 75 ul of the well mixture to second 96-well plate pre-coated with full length or short form human STOP-1 and incubating at room temperature for 15 minutes. The wells of the second plate were washed with PBS—0.5% Tween20 at least three times. 75 ul of HRP-conjugated anti-M13 antibody ( 1/5000 dilution with ELISA buffer) per well was added and incubated at room temperature for 30 minutes. The wells were washed again with PBS—0.05% Tween20 at least five times.

[2] = biological target: T2, human STOP-1 short form (L94-K243) with C-terminal His tag, baculovirus expressed (human, UniProt Q96CG8 94-243); test: solution competition phage ELISA (762 S/S), short form coated and short form as competitor; ND = not detectable
T2 construct: also called #94-243; L94-K243-His
Experimental: as §1
Third, a competition ELISA was performed. 96-well Nunc Maxisorp plates were coated with full length or short form human STOP-1 (2 ug/ml in PBS) at 4° C. overnight or at room temperature for 2 hours. […]

T1 sequence (Q96CG8 other isoform, or with tags, fused parts or gaps limits assumed): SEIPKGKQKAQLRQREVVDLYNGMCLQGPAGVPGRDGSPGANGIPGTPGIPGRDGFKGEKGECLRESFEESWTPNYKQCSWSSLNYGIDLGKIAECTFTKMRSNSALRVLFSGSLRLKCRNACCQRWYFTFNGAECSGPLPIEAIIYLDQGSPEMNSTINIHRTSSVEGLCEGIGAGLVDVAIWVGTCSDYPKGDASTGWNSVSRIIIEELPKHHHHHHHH
T2 sequence (Q96CG8 94-243): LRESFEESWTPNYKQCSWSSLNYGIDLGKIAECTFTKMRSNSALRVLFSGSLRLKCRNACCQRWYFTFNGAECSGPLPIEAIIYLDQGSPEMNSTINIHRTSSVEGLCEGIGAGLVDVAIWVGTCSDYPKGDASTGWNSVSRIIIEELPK

B1: F5 F(ab)'2 displayed on M13 phage (V0350-4-F5) (other)
light: SDIQMTQSPSSLSASVGDRVTITCRASQDVSTAVAWYQQKPGKAPKLLIYSASFLYSGVPSRFSGSGSGTDFTLTISSLQPEDFATYYCQQSYTTPPTFGQGTKVEIKRTVAAPSVFIFPPSDEQLKSGTASVVCLLNNFYPREAKVQWKVDNALQSGNSQESVTEQDSKDSTYSLSSTLTLSKADYEKHKVYACEVTHQGLSSPVTKSFNRGECGASSGMADPNRFRGKDLA
heavy: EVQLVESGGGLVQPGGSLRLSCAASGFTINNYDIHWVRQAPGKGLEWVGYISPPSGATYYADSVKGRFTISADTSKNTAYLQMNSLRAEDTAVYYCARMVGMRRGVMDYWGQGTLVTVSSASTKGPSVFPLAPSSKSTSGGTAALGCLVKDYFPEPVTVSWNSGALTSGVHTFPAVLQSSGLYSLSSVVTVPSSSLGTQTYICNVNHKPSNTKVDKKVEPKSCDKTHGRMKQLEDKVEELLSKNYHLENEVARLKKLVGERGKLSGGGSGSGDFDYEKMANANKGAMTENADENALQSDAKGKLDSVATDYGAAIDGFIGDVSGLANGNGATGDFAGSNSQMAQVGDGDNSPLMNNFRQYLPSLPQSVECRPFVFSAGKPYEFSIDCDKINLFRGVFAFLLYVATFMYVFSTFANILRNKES
notes: also called F5-F(ab)'2-phage; F(ab)'2-F5 phage
In the case of B1, the IC50 [1] is reported as 1 µM and the binding result [2] is reported as “no binding (tested: 0.1 to 500 nM competitor)”.
